Data on five molecules can be found in publication PMC4914081.

The target of data set [1] is T1, Cac1C (C-terminal WHD) (budding yeast, UniProt Q12495 520-606). The data set is described as follows: EMSA. Background: Mobility shift assays separate free from complexed probe on a gel.
The target of data set [2] is T1, Cac1C (C-terminal WHD). The data set is described as follows: EMSA. This is another data set of the same source.
Data set [3] deals with T1, Cac1C (C-terminal WHD). The data set is described as follows: EMSA. The source holds these as a separate data set.
The target in the next data set is Cac1C K577E (budding yeast, UniProt Q12495 520-606, K577E). The data set is described as follows: EMSA.
The next data set has as its target Cac1C K553E (budding yeast, UniProt Q12495 520-606, K553E). As to the kind of experiment: EMSA.
The next data set deals with Cac1C K583E (budding yeast, UniProt Q12495 520-606, K583E). As to the kind of experiment: EMSA.
Data set [4] deals with T1, Cac1C (C-terminal WHD). The data set is described as follows: EMSA. The source holds these as a separate data set.
Another data set concerns the target T2, Mmp150C (mouse, UniProt Q9QWF0 706-827).
T2 sequence: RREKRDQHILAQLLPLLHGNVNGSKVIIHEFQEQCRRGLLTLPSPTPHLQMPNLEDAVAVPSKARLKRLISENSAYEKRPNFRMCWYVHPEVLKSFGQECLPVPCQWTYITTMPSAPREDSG
As to the kind of experiment: EMSA.

The next data set addresses Hsp150C (human, UniProt Q13111 727-854). As to the kind of experiment: EMSA.
For the next data set, the target named is T3, Mmp150C 4KE (mouse, UniProt Q9QWF0 706-827, K768E;R770E;K772E;R773E).
T3 sequence: T2 sequence with K63E, R65E, K67E, R68E
The data set is described as follows: EMSA.

Data set [5] deals with Cac1 (in CAF-1);GST-Cac2;Cac3 (budding yeast (Saccharomyces …, UniProt Q12495;Q04199;P13712 91-606;1-438;1-422, ||)). The data set is described as follows: pull-down.
Data set [6] has as its target T1, Cac1C (C-terminal WHD). The data set is described as follows: pull-down.
The target of the next data set is GST-Cac2 (budding yeast, UniProt Q04199 1-438). As to the kind of experiment: pull-down.

Residue numbers refer to the chain shown, from its start.

T1 sequence (Q12495 520-606): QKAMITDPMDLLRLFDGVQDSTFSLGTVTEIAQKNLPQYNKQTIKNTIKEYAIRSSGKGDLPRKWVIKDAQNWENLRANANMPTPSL
Chain of Cac1 (in CAF-1);GST-Cac2;Cac3 (budding yeast (Q12495 91-606, chain 1 of 3): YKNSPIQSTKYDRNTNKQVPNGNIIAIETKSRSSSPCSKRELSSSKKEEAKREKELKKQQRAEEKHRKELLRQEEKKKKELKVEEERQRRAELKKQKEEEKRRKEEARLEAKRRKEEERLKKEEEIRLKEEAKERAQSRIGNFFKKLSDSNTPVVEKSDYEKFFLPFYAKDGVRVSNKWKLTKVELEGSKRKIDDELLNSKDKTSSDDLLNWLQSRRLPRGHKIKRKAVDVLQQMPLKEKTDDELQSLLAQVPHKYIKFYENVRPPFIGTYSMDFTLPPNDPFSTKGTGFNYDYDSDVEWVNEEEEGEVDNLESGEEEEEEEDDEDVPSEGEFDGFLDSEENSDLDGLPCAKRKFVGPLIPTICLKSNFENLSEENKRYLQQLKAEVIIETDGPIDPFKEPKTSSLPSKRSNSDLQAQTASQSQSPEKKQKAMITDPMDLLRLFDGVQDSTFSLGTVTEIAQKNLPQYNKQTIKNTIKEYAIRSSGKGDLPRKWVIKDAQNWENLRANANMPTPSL
Chain of Cac1 (in CAF-1);GST-Cac2;Cac3 (budding yeast (Q04199 1-438, chain 2 of 3): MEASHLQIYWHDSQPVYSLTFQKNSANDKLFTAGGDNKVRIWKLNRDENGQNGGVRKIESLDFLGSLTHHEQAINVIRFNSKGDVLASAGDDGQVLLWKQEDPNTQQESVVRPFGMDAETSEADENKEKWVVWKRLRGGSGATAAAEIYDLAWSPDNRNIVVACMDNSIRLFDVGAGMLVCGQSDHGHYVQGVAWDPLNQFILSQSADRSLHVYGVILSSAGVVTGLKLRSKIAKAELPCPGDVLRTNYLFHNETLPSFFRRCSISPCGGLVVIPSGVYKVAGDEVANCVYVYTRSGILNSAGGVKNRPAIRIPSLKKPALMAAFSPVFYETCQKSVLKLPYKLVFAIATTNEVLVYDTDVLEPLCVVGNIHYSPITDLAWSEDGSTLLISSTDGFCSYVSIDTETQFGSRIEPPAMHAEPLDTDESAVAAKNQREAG
Chain of Cac1 (in CAF-1);GST-Cac2;Cac3 (budding yeast (P13712 whole entry, chain 3 of 3): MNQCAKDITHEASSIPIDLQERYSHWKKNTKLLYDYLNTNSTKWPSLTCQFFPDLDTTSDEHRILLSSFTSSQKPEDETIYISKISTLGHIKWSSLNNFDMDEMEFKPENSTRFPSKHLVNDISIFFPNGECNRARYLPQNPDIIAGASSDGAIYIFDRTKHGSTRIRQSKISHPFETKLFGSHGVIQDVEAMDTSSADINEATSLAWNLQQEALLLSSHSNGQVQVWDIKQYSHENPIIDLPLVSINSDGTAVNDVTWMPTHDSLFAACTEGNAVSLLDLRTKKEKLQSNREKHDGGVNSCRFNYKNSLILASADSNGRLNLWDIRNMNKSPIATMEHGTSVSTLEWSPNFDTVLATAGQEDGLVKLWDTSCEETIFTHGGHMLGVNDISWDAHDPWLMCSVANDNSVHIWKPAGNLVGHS
Chain of Hsp150C (Q13111 727-854): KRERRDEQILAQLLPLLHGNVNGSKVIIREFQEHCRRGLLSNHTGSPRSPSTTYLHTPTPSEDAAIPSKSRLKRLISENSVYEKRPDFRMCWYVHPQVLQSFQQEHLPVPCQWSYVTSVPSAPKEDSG
Chain of Cac1C K553E (Q12495 520-606 K553E): as the sequence (Q12495 520-606) above, with K34E counted along it
Chain of Cac1C K577E (Q12495 520-606 K577E): as the sequence (Q12495 520-606) above, with K58E counted along it
Chain of Cac1C K583E (Q12495 520-606 K583E): as the sequence (Q12495 520-606) above, with K64E counted along it
Chain of GST-Cac2 (Q04199 1-438): as the sequence (Q04199 1-438, chain 2 of 3) above

B1: GC-rich (dsDNA)
DNA 1: ATCGCCCGCGCA
DNA 2: TGCGCGGGCGAT
Consider B1, for which the binding result with Cac1C (C-terminal WHD) [1] is “binds”.

B2: AT-rich (dsDNA)
DNA 1: ATAATCGATATT
DNA 2: AATATCGATTAT
Regarding B2, in the data set with Cac1C (C-terminal WHD) [2], the binding result is on record as “binds”.

Regarding CAACAAAACCCCAACCCCAAACCACACC (ssDNA) [ssDNA], in the data set with Cac1C (C-terminal WHD) [3], the binding result was “binds”.

B3: 58 bp (dsDNA)
DNA 1: ATACATTTTATGACTGGAAACTTTTTTGTACAACACTCCAATAAACATTTTGATTTTA
DNA 2: TAAAATCAAAATGTTTATTGGAGTGTTGTACAAAAAAGTTTCCAGTCATAAAATGTAT
As for B3, the binding result in the data set with Cac1C K577E, with Cac1C K553E, in the data set with Cac1C K583E, in the data set with Cac1C (C-terminal WHD) [4], in the data set with Mmp150C and with Hsp150C was “binds” throughout. Besides, in the data set with Mmp150C 4KE, the binding result is reported as “no binding”.

B4: 58 bp biotinylated (dsDNA)
DNA 1: B3 DNA 1
DNA 2: B3 DNA 2
modifications: biotin on one strand
For B4, the binding result in data set [5] was “binds”; with Cac1C (C-terminal WHD) [6], “binds”; with GST-Cac2 it was “no binding”.
